# In US20150274802A1 (INDIANA UNIVERSITY RESEARCH AND TECHNOLOGY, published 2015):
# Ends that are not written are not given here.
# B1: #57: Gly^B2-PEG20K-Gly^B2 #11 dimer (ligand)
# chain: GPEHLCGAHLVDALYLVCGDRGFYGYGSSSRRAPQTGIVDECCHRSCDLRRLENYCN
# modifications: not fully specified (N-terminus); ends and bridges not checked; also: dimer: N-terminal amines of two chains joined by bifunctional 20K PEG linker
# B2: IGF1 (Y^B16L^B17) (ligand)
# chain 1: GIVDECCFRSCDLRRLEMYCA
# chain 2: GPETLCGAELVDALYLVCGDRGFYFNKPT
# notes: also called IGF analog IGF1 (Y^B16L^B17)
# Experiments:
# human IGF-1 receptor [1] = molecular target: T1, human IGF-1 receptor (human, UniProt P08069 31-1367); assay: cell-based or functional assay
# human insulin receptor [2] = molecular target: T2, human insulin receptor (human, UniProt P06213 28-1382); assay: cell-based or functional assay
# human IGF-1 receptor [3] = molecular target: T1, human IGF-1 receptor; assay: cell-based or functional assay; remark: listed apart in the source
# human insulin receptor [4] = molecular target: T2, human insulin receptor; assay: competition SPA, [125I]insulin
binder,measurement,setting,value
B1,"Phosphorylation (EC50), % IGF-1 R",human IGF-1 receptor [1],2.6%
same,potency in vitro against monomer #39,human insulin receptor [2],~5 fold
same,"% Insulin Activity (in vitro, assay not named)",human IGF-1 receptor [3],2.6%
B2,IC50,human insulin receptor [4],0.51 nM
